# T1: human MCM8 (HsMCM8), wild type, N-terminal StrepII tag and TEV site (human, UniProt Q9UJA3 1-840)
# T1 sequence (looked up): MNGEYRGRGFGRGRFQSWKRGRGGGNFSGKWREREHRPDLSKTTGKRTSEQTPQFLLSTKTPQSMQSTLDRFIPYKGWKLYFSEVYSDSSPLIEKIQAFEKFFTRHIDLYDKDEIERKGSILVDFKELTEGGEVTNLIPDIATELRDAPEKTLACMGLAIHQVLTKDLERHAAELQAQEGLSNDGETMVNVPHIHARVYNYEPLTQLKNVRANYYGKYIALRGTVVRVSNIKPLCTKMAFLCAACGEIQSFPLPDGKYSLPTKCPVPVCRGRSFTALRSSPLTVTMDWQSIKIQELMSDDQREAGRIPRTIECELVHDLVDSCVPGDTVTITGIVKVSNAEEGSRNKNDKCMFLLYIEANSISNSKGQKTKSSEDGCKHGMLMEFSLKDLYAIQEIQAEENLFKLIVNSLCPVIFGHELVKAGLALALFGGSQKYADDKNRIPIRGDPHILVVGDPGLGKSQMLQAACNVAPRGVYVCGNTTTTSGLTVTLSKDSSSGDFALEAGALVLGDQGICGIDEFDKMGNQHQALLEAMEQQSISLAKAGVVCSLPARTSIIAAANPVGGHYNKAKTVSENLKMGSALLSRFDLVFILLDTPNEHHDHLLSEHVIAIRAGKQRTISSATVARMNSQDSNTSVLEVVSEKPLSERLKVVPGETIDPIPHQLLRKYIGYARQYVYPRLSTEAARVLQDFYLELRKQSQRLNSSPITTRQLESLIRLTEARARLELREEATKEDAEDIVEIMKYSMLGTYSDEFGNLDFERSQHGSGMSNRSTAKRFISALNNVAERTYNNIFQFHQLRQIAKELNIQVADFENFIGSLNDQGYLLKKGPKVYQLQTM
# B1: human MCM9 truncated to the first 680 amino acids (MCM9^680), wild type, N-terminal 6xHis tag (domain or fragment)
# chain: not shown
# Biological target: T1, human MCM8 (HsMCM8), wild type, …
# Test: SEC
binder,measurement,value
B1,stoichiometry N,1
